B1: Keratin, type I cytoskeletal 40 (Homo sapiens), Q6A162 (parent)
chain: MTSDCSSTHCSPESCGTASGCAPASSCSVETACLPGTCATSRCQTPSFLSRSRGLTGCLLPCYFTGSCNSPCLVGNCAWCEDGVFTSNEKETMQFLNDRLASYLEKVRSLEETNAELESRIQEQCEQDIPMVCPDYQRYFNTIEDLQQKILCTKAENSRLAVQLDNCKLATDDFKSKYESELSLRQLLEADISSLHGILEELTLCKSDLEAHVESLKEDLLCLKKNHEEEVNLLREQLGDRLSVELDTAPTLDLNRVLDEMRCQCETVLANNRREAEEWLAVQTEELNQQQLSSAEQLQGCQMEILELKRTASALEIELQAQQSLTESLECTVAETEAQYSSQLAQIQCLIDNLENQLAEIRCDLERQNQEYQVLLDVKARLEGEINTYWGLLDSEDSRLSCSPCSTTCTSSNTCEPCSAYVICTVENCCL

What was measured:
wt1_human WT1, P19544 = variants of: B1; conditions: with wt1_human WT1, P19544
k2c4_human KRT4, P19013 = variants of: B1; conditions: with k2c4_human KRT4, P19013
mta1_human MTA1, Q13330 = variants of: B1; conditions: with mta1_human MTA1, Q13330
prs8_human PSMC5, P62195 = variants of: B1; conditions: with prs8_human PSMC5, P62195
[1] = variants of: B1; conditions: with snai1_human SNAI1, O95863

Measured: effect of a mutation on the interaction

Sequence of mta1_human MTA1, Q13330 (Q13330 whole entry): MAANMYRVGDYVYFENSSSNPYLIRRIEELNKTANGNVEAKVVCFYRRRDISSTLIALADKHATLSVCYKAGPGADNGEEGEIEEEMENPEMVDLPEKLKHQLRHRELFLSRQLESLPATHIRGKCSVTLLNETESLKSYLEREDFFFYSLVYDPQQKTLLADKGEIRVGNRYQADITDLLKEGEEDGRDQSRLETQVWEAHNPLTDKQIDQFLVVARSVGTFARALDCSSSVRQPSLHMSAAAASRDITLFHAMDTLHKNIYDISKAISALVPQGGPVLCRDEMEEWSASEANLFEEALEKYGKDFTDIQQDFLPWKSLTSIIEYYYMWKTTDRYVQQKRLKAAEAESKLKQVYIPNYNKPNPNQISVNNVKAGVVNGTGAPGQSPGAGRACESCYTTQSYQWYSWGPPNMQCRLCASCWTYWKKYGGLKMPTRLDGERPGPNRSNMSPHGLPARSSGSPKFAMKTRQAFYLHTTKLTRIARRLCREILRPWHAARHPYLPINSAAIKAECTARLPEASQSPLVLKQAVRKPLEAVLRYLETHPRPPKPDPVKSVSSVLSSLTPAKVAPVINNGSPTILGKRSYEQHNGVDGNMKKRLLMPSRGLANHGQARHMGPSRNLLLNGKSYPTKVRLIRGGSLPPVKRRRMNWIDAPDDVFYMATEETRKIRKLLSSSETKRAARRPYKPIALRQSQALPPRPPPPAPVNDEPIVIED
Sequence of snai1_human SNAI1, O95863 (O95863 whole entry): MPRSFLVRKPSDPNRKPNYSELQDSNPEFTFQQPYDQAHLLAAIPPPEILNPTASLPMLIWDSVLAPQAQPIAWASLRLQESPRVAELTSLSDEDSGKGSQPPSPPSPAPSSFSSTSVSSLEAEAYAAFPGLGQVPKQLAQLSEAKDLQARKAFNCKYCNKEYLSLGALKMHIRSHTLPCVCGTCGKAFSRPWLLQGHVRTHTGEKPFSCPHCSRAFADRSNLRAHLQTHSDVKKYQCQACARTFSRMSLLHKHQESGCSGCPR
Sequence of wt1_human WT1, P19544 (P19544 whole entry): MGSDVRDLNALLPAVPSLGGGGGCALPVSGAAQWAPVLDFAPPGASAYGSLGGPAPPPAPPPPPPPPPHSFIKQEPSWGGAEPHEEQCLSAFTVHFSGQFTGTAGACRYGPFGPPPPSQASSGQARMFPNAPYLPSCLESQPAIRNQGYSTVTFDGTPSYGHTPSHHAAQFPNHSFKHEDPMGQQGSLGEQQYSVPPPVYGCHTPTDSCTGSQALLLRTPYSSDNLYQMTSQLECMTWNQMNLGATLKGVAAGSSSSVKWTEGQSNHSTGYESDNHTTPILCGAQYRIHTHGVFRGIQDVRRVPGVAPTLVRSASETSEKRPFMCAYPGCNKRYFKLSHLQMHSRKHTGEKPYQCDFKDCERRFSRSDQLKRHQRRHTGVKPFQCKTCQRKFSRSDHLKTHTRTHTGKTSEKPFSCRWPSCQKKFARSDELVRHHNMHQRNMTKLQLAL
Sequence of prs8_human PSMC5, P62195 (P62195 whole entry): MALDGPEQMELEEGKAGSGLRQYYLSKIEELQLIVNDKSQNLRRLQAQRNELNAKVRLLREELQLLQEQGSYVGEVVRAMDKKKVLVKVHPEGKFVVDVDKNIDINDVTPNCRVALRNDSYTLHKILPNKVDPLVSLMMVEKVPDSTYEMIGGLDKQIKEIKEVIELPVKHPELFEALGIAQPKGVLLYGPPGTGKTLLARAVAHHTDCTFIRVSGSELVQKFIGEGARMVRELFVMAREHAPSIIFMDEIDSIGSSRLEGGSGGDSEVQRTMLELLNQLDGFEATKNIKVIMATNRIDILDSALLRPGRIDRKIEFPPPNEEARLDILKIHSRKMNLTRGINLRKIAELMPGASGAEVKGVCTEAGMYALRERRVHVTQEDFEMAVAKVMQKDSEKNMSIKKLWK
Sequence of k2c4_human KRT4, P19013 (P19013 whole entry): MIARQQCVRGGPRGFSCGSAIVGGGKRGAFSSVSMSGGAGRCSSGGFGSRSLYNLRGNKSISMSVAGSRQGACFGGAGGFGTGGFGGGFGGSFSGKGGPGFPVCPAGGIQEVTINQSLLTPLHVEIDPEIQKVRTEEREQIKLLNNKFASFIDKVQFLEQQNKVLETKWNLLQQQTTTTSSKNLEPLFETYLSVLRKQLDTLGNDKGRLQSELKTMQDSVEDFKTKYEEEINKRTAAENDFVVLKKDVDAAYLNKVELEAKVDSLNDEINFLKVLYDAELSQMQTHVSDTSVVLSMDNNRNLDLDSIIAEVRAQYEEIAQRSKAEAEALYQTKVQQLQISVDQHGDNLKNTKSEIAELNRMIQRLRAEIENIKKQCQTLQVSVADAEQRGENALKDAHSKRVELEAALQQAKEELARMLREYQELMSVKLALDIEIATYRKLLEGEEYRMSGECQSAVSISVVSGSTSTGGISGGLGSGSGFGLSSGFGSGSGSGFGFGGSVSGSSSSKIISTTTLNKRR

MTSDCSSTHCSPESCGTASGCAPASSCSVETACLPGTCATSRCQTPSFLSRSRGLTGCLLPCYFTGSCNSPCLVGNCAWCEDGVFTSNEKETMQFLNDRLASYLEKVRSLEETNAELESRIQEQCEQDIPMVCPDYQRYFNTIEDLQQKILCTKAENSRLAVQLDNCKLATDDFKSKYESELSLRQLLEADISSLHGILEELTLCKSDLEAHVESLKEDLLCLKKNHEEEVNLLREQLGDRLSVELDTAPTLDLNRVLDEMRCQCETVLANNRREAEEWLAVQTEELNQQQLSSAEQLQGCQMEILELKRTASALEIELQAQQSLTESLECTVAETEAQYSSQLAQIQRLIDNLENQLAEIRCDLERQNQEYQVLLDVKARLEGEINTYWGLLDSEDSRLSCSPCSTTCTSSNTCEPCSAYVICTVENCCL [C349R]
with no effect: all assays above

MTSDCSSTHCSPESCGTASGCAPASSCSVETACLPGTCATSRCQTPSFLSRSRGLTGCLLPCYFTGSCNSPCLVGNCAWCEDGVFTSNEKETMQFLNDRLASYLEKVRSLEETNAELESRIQEQCEQDIPMVCPDYQRYFNTIEDLQQKILCTKAENSRLAVQLDNCKLATDDFKSKYESELSLRQLLEADISSLHGILEELTLCKSDLEAHVESLKEDLLCLKKNHEEEVNLLREQLGDRLSVELDTAPTLDLNRVLDEMRCQCETVLANNRREAEEWLAVQTEELNQQQLSSAEQLQGCQMEILELKRTASALEIELQAQQSLTESLECTVAETEAQYSSQLAQIQCLIDNLENQLAEIRCDLERQNQEYQVLLDVKARLEGEINMYWGLLDSEDSRLSCSPCSTTCTSSNTCEPCSAYVICTVENCCL [T388M]
with no effect: all assays above

MTSDCSSTHCSPESCGTASGCAPASSCSVETACLPGTCATSRCQTPSFLSRSRGLTGCLLPCYFTGSCNSPCLVGNCAWCEDGVFTSNEKETMQFLNDRLASYLEKVRSLEETNAELESRIQEQCEQDIPMVCPDYQRYFNTIEDLQQKILCTKAENSRLAVQLDNCKLATDDFKSKYESELSLRQLLEADISSLHGILEELTLCKSDLEAHVESLKEDLLCLKKNHEEEVNLLREQLGDRLSVELDTAPTLDLNRVLDEMRCQCETVLANNRREAEEWLAVQTEELNQQQLSSAEQLQGCQMEILELKRTASALEIELQAQQSLTESLECTVAETEAQYSSQLAQIQCLIDNLENQLAEIRCDLERQNQEYQVLLDVKARLEGEINTYRGLLDSEDSRLSCSPCSTTCTSSNTCEPCSAYVICTVENCCL [W390R]
with no effect: all assays above
